Laboratory results: patent publication US20220259593A1, “CONTROL OF MAMMALIAN GENE DOSAGE USING CRISPR” (The Regents of the University of California, priority 2019, published 2022)
Positions count from the first letter of the chain named.

Tested on: K562 CRISPRi cells
Experiment: Constant region variant library pooled growth screen, K562
Format: cell-based, human
Conditions: sgRNA constant region variants; activity relative to the original, un-modified constant region cr995
How it was run: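 Growth screens in K562 CRISPRi cells were harvested 4-8 days post-selection at >2000× library coverage. Each variant's phenotype was referenced to the unmodified constant region with the same targeting sequence.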

B1: cr441 (nucleic acid)
guide: GTTTAAGAGCTAAGCTGGAAACAGCATAGCAAGTTTAAATAAGGCTAGTCCGTTATAAACTTGAAAAAGTGGCACCGAGTCGGTGCT
modifications: listed as DNA, chemistry not fully specified
Which Mean relative activity does the source give for B1 here?
The Mean relative activity was 0.622.

B2: cr212 (nucleic acid)
guide: B1 guide with G33A, A57C, A66G
modifications: listed as DNA, chemistry not fully specified
How did the Mean relative activity turn out when B2 was run?
Its Mean relative activity is 0.6035.

B3: cr456 (nucleic acid)
guide: B1 guide with G33A, T46A, A57C
modifications: listed as DNA, chemistry not fully specified
B3 was tested. Which Mean relative activity did it give?
Its Mean relative activity is 0.5821.

B4: cr937 (nucleic acid)
guide: B1 guide with C45G, G48C, A57C, T62C, A67G, C76A, G82T
modifications: listed as DNA, chemistry not fully specified
How did the Mean relative activity turn out when B4 was run?
Its Mean relative activity is 0.6137.

B5: cr223 (nucleic acid)
guide: B1 guide with C45G, G48C, A57C
modifications: listed as DNA, chemistry not fully specified
B5 was tested. Which Mean relative activity did it give?
The Mean relative activity was 0.5667.

B6: cr915 (nucleic acid)
guide: B1 guide with A57C, G77C, C81G
modifications: listed as DNA, chemistry not fully specified
Which Mean relative activity does the source give for B6 here?
The Mean relative activity was 0.5965.

B7: cr338 (nucleic acid)
guide: B1 guide with T35C, T46G, A57C
modifications: listed as DNA, chemistry not fully specified
For B7, which Mean relative activity is on record?
Its Mean relative activity is 0.5831.

B8: cr837 (nucleic acid)
guide: B1 guide with A57C, G77C
modifications: listed as DNA, chemistry not fully specified
B8 was tested. Which Mean relative activity did it give?
The Mean relative activity was 0.5543.

B9: cr927 (nucleic acid)
guide: B1 guide with A57C, A74G, G77C, C81G, T84C
modifications: listed as DNA, chemistry not fully specified
With B9 as the molecule, how does the Mean relative activity read?
Its Mean relative activity is 0.5921.

B10: cr227 (nucleic acid)
guide: B1 guide with T53C, T56A, A57C, A58C
modifications: listed as DNA, chemistry not fully specified
B10 was tested. Which Mean relative activity did it give?
Its Mean relative activity is 0.6062.

B11: cr330 (nucleic acid)
guide: B1 guide with C45A, G48T, A57C, G72C, C86G
modifications: listed as DNA, chemistry not fully specified
With B11 as the molecule, how does the Mean relative activity read?
Its Mean relative activity is 0.5762.

B12: cr442 (nucleic acid)
guide: B1 guide with T34C, A57C, T61C, A68G
modifications: listed as DNA, chemistry not fully specified
B12 was tested. Which Mean relative activity did it give?
The Mean relative activity was 0.6169.

B13: cr479 (nucleic acid)
guide: B1 guide with A57C, C60G, G69C, C73G, G77C, C81G, G85C
modifications: listed as DNA, chemistry not fully specified
For B13, which Mean relative activity is on record?
Its Mean relative activity is 0.5994.

B14: cr491 (nucleic acid)
guide: B1 guide with C45A, G48T, A57C, C60G, G69C
modifications: listed as DNA, chemistry not fully specified
How did the Mean relative activity turn out when B14 was run?
Its Mean relative activity is 0.5775.

B15: cr533 (nucleic acid)
guide: B1 guide with A57C, A59G, T70C, A74G, C75G, G83C, T84C
modifications: listed as DNA, chemistry not fully specified
Which Mean relative activity does the source give for B15 here?
The Mean relative activity was 0.5558.

B16: cr598 (nucleic acid)
guide: B1 guide with T34C, A57C, T62G, A67C
modifications: listed as DNA, chemistry not fully specified
With B16 as the molecule, how does the Mean relative activity read?
Its Mean relative activity is 0.5934.

B17: cr766 (nucleic acid)
guide: B1 guide with A57C, T61A, A68T
modifications: listed as DNA, chemistry not fully specified
With B17 as the molecule, how does the Mean relative activity read?
The Mean relative activity was 1.051.

B18: cr134 (nucleic acid)
guide: B1 guide with A57T, A66C
modifications: listed as DNA, chemistry not fully specified
For B18, which Mean relative activity is on record?
The Mean relative activity was 0.5692.

B19: cr957 (nucleic acid)
guide: B1 guide with C45G, G48C, A57C, G72C, C86G
modifications: listed as DNA, chemistry not fully specified
Which Mean relative activity does the source give for B19 here?
Its Mean relative activity is 0.5576.

B20: cr008 (nucleic acid)
guide: B1 guide with T3C, A57C
modifications: listed as DNA, chemistry not fully specified
With B20 as the molecule, how does the Mean relative activity read?
Its Mean relative activity is 0.5955.

B21: cr989 (nucleic acid)
guide: B1 guide with A57C, G69A
modifications: listed as DNA, chemistry not fully specified
Which Mean relative activity does the source give for B21 here?
Its Mean relative activity is 0.5623.

B22: cr500 (nucleic acid)
guide: B1 guide with A57C, T80G
modifications: listed as DNA, chemistry not fully specified
How did the Mean relative activity turn out when B22 was run?
The Mean relative activity was 0.5743.

B23: cr650 (nucleic acid)
guide: B1 guide with A57G
modifications: listed as DNA, chemistry not fully specified
For B23, which Mean relative activity is on record?
Its Mean relative activity is 0.6158.

B24: cr651 (nucleic acid)
guide: B1 guide with A55T, T56G, A57C, G71A
modifications: listed as DNA, chemistry not fully specified
How did the Mean relative activity turn out when B24 was run?
Its Mean relative activity is 0.5637.

B25: cr300 (nucleic acid)
guide: B1 guide with C45A, G48T, A57C, G72A, C73T, G85A, C86T
modifications: listed as DNA, chemistry not fully specified
B25 was tested. Which Mean relative activity did it give?
Its Mean relative activity is 0.592.

B26: cr976 (nucleic acid)
guide: B1 guide with C45G, G48C, A57C, A65G
modifications: listed as DNA, chemistry not fully specified
With B26 as the molecule, how does the Mean relative activity read?
The Mean relative activity was 0.5594.

B27: cr803 (nucleic acid)
guide: B1 guide with C45A, G48T, A57C, A65G
modifications: listed as DNA, chemistry not fully specified
With B27 as the molecule, how does the Mean relative activity read?
The Mean relative activity was 0.578.

B28: cr440 (nucleic acid)
guide: B1 guide with A57C, G69C
modifications: listed as DNA, chemistry not fully specified
How did the Mean relative activity turn out when B28 was run?
The Mean relative activity was 0.5863.

B29: cr086 (nucleic acid)
guide: B1 guide with A6C, G7T, A57C
modifications: listed as DNA, chemistry not fully specified
For B29, which Mean relative activity is on record?
Its Mean relative activity is 0.614.

B30: cr726 (nucleic acid)
guide: B1 guide with A32T, G52A, A55C, A57C
modifications: listed as DNA, chemistry not fully specified
Which Mean relative activity does the source give for B30 here?
The Mean relative activity was 0.5903.

B31: cr602 (nucleic acid)
guide: B1 guide with A57C, A74G, T84C
modifications: listed as DNA, chemistry not fully specified
Which Mean relative activity does the source give for B31 here?
The Mean relative activity was 1.049.

B32: cr639 (nucleic acid)
guide: B1 guide with C45A, G48T, A57C
modifications: listed as DNA, chemistry not fully specified
How did the Mean relative activity turn out when B32 was run?
Its Mean relative activity is 0.6057.

B33: cr481 (nucleic acid)
guide: B1 guide with C45G, G48C, A57C, G72A, C86T
modifications: listed as DNA, chemistry not fully specified
For B33, which Mean relative activity is on record?
Its Mean relative activity is 0.5936.

B34: cr842 (nucleic acid)
guide: B1 guide with T34C, A57C, A59G, T70C
modifications: listed as DNA, chemistry not fully specified
B34 was tested. Which Mean relative activity did it give?
Its Mean relative activity is 0.5544.

B35: cr458 (nucleic acid)
guide: B1 guide with A57C, A65G, G71C
modifications: listed as DNA, chemistry not fully specified
Which Mean relative activity does the source give for B35 here?
Its Mean relative activity is 0.5958.

B36: cr282 (nucleic acid)
guide: B1 guide with A57C, G72C, C73A, A74C, T84G, G85T, C86G
modifications: listed as DNA, chemistry not fully specified
For B36, which Mean relative activity is on record?
Its Mean relative activity is 1.049.

B37: cr846 (nucleic acid)
guide: B1 guide with A28G, A57C, G63A, A78G
modifications: listed as DNA, chemistry not fully specified
How did the Mean relative activity turn out when B37 was run?
The Mean relative activity was 0.5528.

B38: cr827 (nucleic acid)
guide: B1 guide with C45A, G48T, A57C, A74T, C75A, G83T, T84A
modifications: listed as DNA, chemistry not fully specified
B38 was tested. Which Mean relative activity did it give?
The Mean relative activity was 0.5792.

B39: cr631 (nucleic acid)
guide: B1 guide with C45A, G48T, A57C, T61A, A68T, C75A, G83T
modifications: listed as DNA, chemistry not fully specified
Which Mean relative activity does the source give for B39 here?
The Mean relative activity was 0.6014.

B40: cr531 (nucleic acid)
guide: B1 guide with A19T, A57C
modifications: listed as DNA, chemistry not fully specified
With B40 as the molecule, how does the Mean relative activity read?
Its Mean relative activity is 1.048.

B41: cr451 (nucleic acid)
guide: B1 guide with C45A, G48T, A57C, A74T, T84A
modifications: listed as DNA, chemistry not fully specified
How did the Mean relative activity turn out when B41 was run?
The Mean relative activity was 0.6053.
